Consider one protein from PMC10123104.

Substrate in this series: Nc1nc2c(ncn2[C@@H]2O[C@H](COP(=O)(O)OP(=O)(O)OP(=O)(O)O)[C@@H](O)[C@H]2O)c(=O)[nH]1
As to the kind of experiment: purified protein, by the assay type. In kind it is biochemical. The protocol: Nucleotides were detected at 254 nm. […] All measurements were performed in triplicate.

B1: ObgE (Escherichia coli K-12) (protein)
chain: MKFVDEASILVVAGDGGNGCVSFRREKYIPKGGPDGGDGGDGGDVWMEADENLNTLIDYRFEKSFRAERGQNGASRDCTGKRGKDVTIKVPVGTRVIDQGTGETMGDMTKHGQRLLVAKGGWHGLGNTRFKSSVNRTPRQKTNGTPGDKRELLLELMLLADVGMLGMPNAGKSTFIRAVSAAKPKVADYPFTTLVPSLGVVRMDNEKSFVVADIPGLIEGAAEGAGLGIRFLKHLERCRVLLHLIDIDPIDGTDPVENARIIISELEKYSQDLATKPRWLVFNKIDLLDKVEAEEKAKAIAEALGWEDKYYLISAASGLGVKDLCWDVMTFIIENPVVQAEEAKQPEKVEFMWDDYHRQQLEEIAEEDDEDWDDDWDEDDEEGVEFIYKR
notes: full length, N-terminally His6-tagged (pET28a), nucleotide-free after alkaline phosphatase treatment
Broadly, the Km is the substrate concentration at which the rate is half of its maximum. For the protein B1, the Km was determined as 4 µM.
